This passage reports Ki results from US6544767 (AXYS PHARMACEUTICALS, dated 2003).

The assay has as its target T1, mature recombinant human cathepsin O2 (human, UniProt P43235 115-329).
T1 construct: also called parent enzyme; mature enzyme
T1 sequence: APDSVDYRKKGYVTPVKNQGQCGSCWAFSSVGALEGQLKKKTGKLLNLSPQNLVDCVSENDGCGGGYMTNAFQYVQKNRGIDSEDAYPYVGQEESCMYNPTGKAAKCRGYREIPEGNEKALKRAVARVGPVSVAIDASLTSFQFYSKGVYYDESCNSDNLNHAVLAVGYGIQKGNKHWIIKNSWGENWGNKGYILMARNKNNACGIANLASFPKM
Nature of the assay: inhibition of enzyme activity; assay not detailed in Example 3.

B1: propart of human cathepsin O2 (expressed separately in the pTrcHis vector, six-histidine metal binding domain) (other)
chain: LYPEEILDTHWELWKKTHRKQYNNKVDEISRRLIWEKNLKYISIHNLEASLGVHTYELAMNHLGDMTSEEVVQKMTGLKVPLSHSRSNDTLYIPEWEGR
notes: Tag removal is not mentioned; also called proregion; not shown: vector-encoded leader of pTrcHis with a series of six histidine residues
As for B1, the Ki – broadly, a measure of affinity in units of concentration, obtained from inhibition or displacement – was 0.1 nM.
